Experimental data published in IntAct's records for PubMed 15507434.

B1: Microphthalmia-associated transcription factor (Homo sapiens), O75030 (parent)
chain: MQSESGIVPDFEVGEEFHEEPKTYYELKSQPLKSSSSAEHPGASKPPISSSSMTSRILLRQQLMREQMQEQERREQQQKLQAAQFMQQRVPVSQTPAINVSVPTTLPSATQVPMEVLKVQTHLENPTKYHIQQAQRQQVKQYLSTTLANKHANQVLSLPCPNQPGDHVMPPVPGSSAPNSPMAMLTLNSNCEKEGFYKFEEQNRAESECPGMNTHSRASCMQMDDVIDDIISLESSYNEEILGLMDPALQMANTLPVSGNLIDLYGNQGLPPPGLTISNSCPANLPNIKRELTACIFPTESEARALAKERQKKDNHNLIERRRRFNINDRIKELGTLIPKSNDPDMRWNKGTILKASVDYIRKLQREQQRAKELENRQKKLEHANRHLLLRIQELEMQARAHGLSLIPSTGLCSPDLVNRIIKQEPVLENCSQDLLQHHADLTCTTTLDLTDGTITFNNNLGTGTEANQAYSVPTKMGSKLEDILMDDTLSPVGVTDPLLSSVSPGASKTSSRRSSMSMEETEHTC

Variants of: B1
Conditions: with tfeb_human TFEB

**Q.** Which “effect of a mutation on the interaction” value does the source give for K289R;K423R here?
**A.** The value was “with no effect”.

Variants of: B1
Conditions: with tfe3_human TFE3, P19532
Sequence of tfe3_human TFE3, P19532 (P19532 whole entry): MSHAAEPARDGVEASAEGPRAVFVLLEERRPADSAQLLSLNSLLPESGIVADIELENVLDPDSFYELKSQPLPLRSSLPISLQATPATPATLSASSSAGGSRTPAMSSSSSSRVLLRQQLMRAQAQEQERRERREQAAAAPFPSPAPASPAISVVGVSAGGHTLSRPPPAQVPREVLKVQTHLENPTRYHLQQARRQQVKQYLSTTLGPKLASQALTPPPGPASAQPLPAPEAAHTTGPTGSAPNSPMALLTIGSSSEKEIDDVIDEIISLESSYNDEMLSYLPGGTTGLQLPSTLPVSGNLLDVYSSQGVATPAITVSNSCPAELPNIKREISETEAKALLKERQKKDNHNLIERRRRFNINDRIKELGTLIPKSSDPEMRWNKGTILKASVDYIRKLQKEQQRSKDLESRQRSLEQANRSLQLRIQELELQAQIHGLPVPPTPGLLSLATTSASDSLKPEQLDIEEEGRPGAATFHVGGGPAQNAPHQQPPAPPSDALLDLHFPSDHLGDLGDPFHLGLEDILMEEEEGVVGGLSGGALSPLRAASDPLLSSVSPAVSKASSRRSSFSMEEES

**Q.** K289R;K423R was tested. Which “effect of a mutation on the interaction” value did it give?
**A.** The value was “with no effect”.
